The data set deals with FvWRKY50-His (Fragaria vesca? (diploid strawberry; …, UniProt A0A2H4G369 6-213). The experiment in a line: EMSA; 200-fold unlabeled probe used as competitor; EMSA buffer, salt, pH and temperature not given in the material. The following applies: protein: recombinant, tags: His (pET30a; also written His-FvWRKY50), blunt.
Chain of FvWRKY50-His (Fragaria vesca? (A0A2H4G369 entry or part of it): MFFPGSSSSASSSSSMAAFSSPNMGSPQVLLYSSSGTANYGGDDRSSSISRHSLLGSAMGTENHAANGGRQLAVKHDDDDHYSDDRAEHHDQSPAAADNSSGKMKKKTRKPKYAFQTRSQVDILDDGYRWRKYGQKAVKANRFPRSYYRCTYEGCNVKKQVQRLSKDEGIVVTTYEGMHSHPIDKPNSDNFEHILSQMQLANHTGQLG

B1: proFT3 probe W982 (dsDNA)
DNA 1: GATCCATTTCCATTGACCAGACTCACCTCAC
DNA 2: GTGAGGTGAGTCTGGTCAATGGAAATGGATC
B1: the binding result (label: biotin) is “binds”.

B2: proCHI probe W1610 (dsDNA)
DNA 1: CTCATTTTACCAAGTTGACCCCTTCATTTG
DNA 2: CAAATGAAGGGGTCAACTTGGTAAAATGAG
Take B2: the binding result is reported as “binds”.

B3: proDFR probe W290 (dsDNA)
DNA 1: CTTATATCCACATCTTGACCGTTCAGTTTATAG
DNA 2: CTATAAACTGAACGGTCAAGATGTGGATATAAG
Take B3: the binding result was “binds”.

For the origin of these results see paper PMC10419500, “FvWRKY50 is an important gene that regulates both vegetative growth and reproductive growth in strawberry”.
